The results in this text go back to article PMC10397247.

Common to all, as to experiment: two-hybrid library CCNG1;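 further: natural log of median RNA to DNA barcode read ratio; higher means stronger binding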
The target of one assay is T1, 4H491-bA.
T1 chain: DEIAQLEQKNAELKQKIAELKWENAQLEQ

The target of a further assay is T2, 4H342-bA.
T2 chain: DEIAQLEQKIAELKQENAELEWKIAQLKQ

Another assay concerns the target T3, 4H2944-bA.
T3 chain: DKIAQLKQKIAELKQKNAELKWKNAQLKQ

For the next assay, the target named is T4, 4H48-bA.
T4 chain: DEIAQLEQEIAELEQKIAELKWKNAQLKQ

A further assay concerns the target T5, 4H2883-bA.
T5 chain: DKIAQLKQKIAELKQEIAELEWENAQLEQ

The next assay concerns the target T6, 4H2937-bA.
T6 chain: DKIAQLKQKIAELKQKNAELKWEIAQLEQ

The target of the next assay is T7, 4H1845-bH.
T7 chain: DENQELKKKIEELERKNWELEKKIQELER

A further assay deals with T8, 4H72-bH.
T8 chain: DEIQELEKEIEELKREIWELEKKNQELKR

The next assay deals with T9, 4H2729-bH.
T9 chain: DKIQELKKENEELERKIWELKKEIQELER

For the next assay, the target named is T10, 4H883-bH.
T10 chain: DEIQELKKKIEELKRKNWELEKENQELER

Another assay deals with T11, 4H2610-bH.
T11 chain: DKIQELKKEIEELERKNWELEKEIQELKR

A further assay addresses T12, 4H331-bH.
T12 chain: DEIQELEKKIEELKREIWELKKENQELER

The next assay addresses T13, 4H3112-bH.
T13 chain: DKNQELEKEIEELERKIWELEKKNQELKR

A further assay deals with T14, 4H687-bH.
T14 chain: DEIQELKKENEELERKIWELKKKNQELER

Another assay deals with T15, 4H949-bA.
T15 chain: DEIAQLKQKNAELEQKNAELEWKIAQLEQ

The next assay addresses T16, 4H908-bH.
T16 chain: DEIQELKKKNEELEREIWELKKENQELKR

Another assay has as its target T17, 4H918-bH.
T17 chain: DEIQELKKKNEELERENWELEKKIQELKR

Another assay has as its target T18, 4H2576-bH.
T18 chain: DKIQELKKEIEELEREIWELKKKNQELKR

In another assay the target is T19, 4H797-bH.
T19 chain: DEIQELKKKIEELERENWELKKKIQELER

Another assay addresses T20, 4H717-bH.
T20 chain: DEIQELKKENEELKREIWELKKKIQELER

The target in a further assay is T21, 4H1828-bH.
T21 chain: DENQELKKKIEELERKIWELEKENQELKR

Another assay has as its target T22, 4H3606-bH.
T22 chain: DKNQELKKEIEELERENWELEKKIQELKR

The next assay concerns the target T23, 4H3354-bH.
T23 chain: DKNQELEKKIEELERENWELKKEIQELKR

A further assay has as its target T24, 4H2442-bH.
T24 chain: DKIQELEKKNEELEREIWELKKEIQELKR

For another assay, the target named is T25, 4H607-bH.
T25 chain: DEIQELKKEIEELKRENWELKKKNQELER

In another assay the target is T26, 4H3185-bH.
T26 chain: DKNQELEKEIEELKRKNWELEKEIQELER

A further assay concerns the target T27, 4H3427-bH.
T27 chain: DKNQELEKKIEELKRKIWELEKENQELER

For a further assay, the target named is T28, 4H454-bH.
T28 chain: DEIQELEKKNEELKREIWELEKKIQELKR

The target of a further assay is T29, 4H4001-bH.
T29 chain: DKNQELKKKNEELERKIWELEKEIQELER

A further assay concerns the target T30, 4H2618-bH.
T30 chain: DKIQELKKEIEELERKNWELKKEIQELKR

For the next assay, the target named is T31, 4H370-bH.
T31 chain: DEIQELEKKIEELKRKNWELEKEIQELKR

A further assay addresses T32, 4H3843-bH.
T32 chain: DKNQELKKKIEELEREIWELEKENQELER

The target in the next assay is T33, 4H338-bH.
T33 chain: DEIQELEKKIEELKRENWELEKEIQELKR

The next assay addresses T34, 4H3189-bH.
T34 chain: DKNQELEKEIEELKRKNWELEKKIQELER

A further assay has as its target T35, 4H3855-bH.
T35 chain: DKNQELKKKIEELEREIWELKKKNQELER

A further assay deals with T36, 4H967-bH.
T36 chain: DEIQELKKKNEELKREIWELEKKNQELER

Another assay addresses T37, 4H1446-bH.
T37 chain: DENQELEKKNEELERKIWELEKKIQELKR

Another assay deals with T38, 4H754-bH.
T38 chain: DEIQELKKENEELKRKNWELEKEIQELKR

For another assay, the target named is T39, 4H3782-bH.
T39 chain: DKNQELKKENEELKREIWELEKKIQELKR

The target of the next assay is T40, 4H607-bA.
T40 chain: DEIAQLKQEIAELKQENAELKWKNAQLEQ

The target of another assay is T41, 4H568-bH.
T41 chain: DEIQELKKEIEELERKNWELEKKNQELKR

Another assay addresses T42, 4H462-bH.
T42 chain: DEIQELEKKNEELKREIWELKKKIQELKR

A further assay addresses T43, 4H2667-bH.
T43 chain: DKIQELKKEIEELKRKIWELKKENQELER

The next assay concerns the target T44, 4H4001-bA.
T44 chain: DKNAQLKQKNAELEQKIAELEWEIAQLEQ

Another assay has as its target T45, 4H953-bH.
T45 chain: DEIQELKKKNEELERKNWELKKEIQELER

A further assay deals with T46, 4H2697-bH.
T46 chain: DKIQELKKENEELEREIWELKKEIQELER

The target in another assay is T47, 4H491-bN.
T47 chain: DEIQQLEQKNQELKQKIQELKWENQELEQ

A further assay addresses T48, 4H342-bN.
T48 chain: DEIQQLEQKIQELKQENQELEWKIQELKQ

The target of another assay is T49, 4H48-bN.
T49 chain: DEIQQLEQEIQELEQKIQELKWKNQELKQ

The target of the next assay is T50, 4H2944-bN.
T50 chain: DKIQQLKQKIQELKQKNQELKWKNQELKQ

The target in another assay is T51, 4H2937-bN.
T51 chain: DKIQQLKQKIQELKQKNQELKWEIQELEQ

The next assay deals with T52, 4H2883-bN.
T52 chain: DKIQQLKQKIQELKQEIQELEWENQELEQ

In the case of DKIAQLKQKIAELKQEIAELEWENAQLEQ [4H2883-bA], the interaction score in the assay with 4H491-bA was -0.886; in the assay with 4H342-bA, -0.134; in the assay with 4H2944-bA, 1.15; with 4H48-bA, 1.3; in the assay with 4H2883-bA it was 0.521; with 4H2937-bA, 0.793.
As for DENQELEKKNEELERKIWELEKKIQELKR [4H1446-bH], the interaction score was 0.192 with 4H1845-bH; -0.157 with 4H72-bH; 0.679 with 4H2729-bH; 0.0186 with 4H883-bH; 0.669 in the assay with 4H2610-bH; 1.32 with 4H331-bH. Besides, the interaction score is -0.67 with 4H3112-bH; 0.347 with 4H687-bH; -2.01 with 4H949-bA; -0.161 with 4H908-bH; -1.41 with 4H918-bH; 0.59 in the assay with 4H2576-bH. Moreover, the interaction score in the assay with 4H797-bH is -0.466; with 4H717-bH, -0.635; with 4H1828-bH, 0.624; in the assay with 4H3606-bH, -0.704; with 4H3354-bH, 0.818; with 4H2442-bH it was 0.731. The interaction score is -0.622 with 4H607-bH; 0.0116 in the assay with 4H3185-bH; 0.933 with 4H3427-bH; 0.981 in the assay with 4H454-bH; 1.24 in the assay with 4H4001-bH; -0.314 in the assay with 4H2618-bH. The interaction score was -0.404 with 4H370-bH; 1.3 in the assay with 4H3843-bH; 1.17 with 4H338-bH; -1.86 with 4H3189-bH; 0.34 with 4H3855-bH; 0.346 with 4H967-bH. The interaction score in the assay with 4H1446-bH is 0.821; with 4H754-bH, 0.109; in the assay with 4H3782-bH, 0.741; with 4H607-bA it was 0.727; with 4H568-bH, -2.02; in the assay with 4H462-bH, 0.0836. In addition, the interaction score with 4H2667-bH is -0.551; with 4H4001-bA it was 2.32; in the assay with 4H953-bH, -0.325; with 4H2697-bH it was 1.08.
As for DKIQQLKQKIQELKQEIQELEWENQELEQ [4H2883-bN], the interaction score was -0.669 in the assay with 4H491-bN; -1.84 with 4H342-bN; 2 with 4H48-bN; 0.237 with 4H2944-bN; -1.33 in the assay with 4H2937-bN; 0.96 in the assay with 4H2883-bN.
